Experimental data: publication PMC6755086
Several values for one entry are separate records, joined by “and”; a condition that tells them apart may be missing. Equal values may be shown once.

Molecular target: Burkholderia pseudomallei Class 2 OLD protein, full-length (Bp^FL, residues 1-594) (Burkholderia pseudomallei)
Assay: SEC-MALS

Substance: Burkholderia pseudomallei Class 2 OLD protein, full-length (Bp^FL, residues 1-594) (enzyme)
- stoichiometry N: 2 and 4
